The values below come from US20240010722A1 (published 2024).

Numbering of substitutions follows the chain as printed.

The term Kd denotes the equilibrium constant for the complex coming apart. Higher therefore signals a looser complex. In general, koff refers to the rate constant with which the complex falls apart. A lower koff goes with slow dissociation. For orientation: kon means a measure of how fast the partners come together. Read a high kon as fast association.

Sequences and labels used below:
T1: human MAdCAM (human, UniProt Q13477 19-317, limits assumed)
T1 construct: also called huMAdCAM; human MAdCAM-1
T1 sequence (looked up): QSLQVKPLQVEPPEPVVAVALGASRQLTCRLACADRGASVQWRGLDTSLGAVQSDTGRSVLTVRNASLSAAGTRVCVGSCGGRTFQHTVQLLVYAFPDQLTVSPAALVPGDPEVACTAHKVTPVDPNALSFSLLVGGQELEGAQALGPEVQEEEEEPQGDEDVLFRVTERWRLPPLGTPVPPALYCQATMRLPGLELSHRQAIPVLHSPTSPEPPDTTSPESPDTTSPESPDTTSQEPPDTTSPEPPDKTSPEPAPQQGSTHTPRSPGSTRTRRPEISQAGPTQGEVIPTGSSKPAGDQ

T2: human MAdCAM on CHO cells (human, UniProt Q13477 19-382)
T2 construct: whole, on cells; also called CHO cells over-expressing human MAdCAM
T2 sequence (looked up): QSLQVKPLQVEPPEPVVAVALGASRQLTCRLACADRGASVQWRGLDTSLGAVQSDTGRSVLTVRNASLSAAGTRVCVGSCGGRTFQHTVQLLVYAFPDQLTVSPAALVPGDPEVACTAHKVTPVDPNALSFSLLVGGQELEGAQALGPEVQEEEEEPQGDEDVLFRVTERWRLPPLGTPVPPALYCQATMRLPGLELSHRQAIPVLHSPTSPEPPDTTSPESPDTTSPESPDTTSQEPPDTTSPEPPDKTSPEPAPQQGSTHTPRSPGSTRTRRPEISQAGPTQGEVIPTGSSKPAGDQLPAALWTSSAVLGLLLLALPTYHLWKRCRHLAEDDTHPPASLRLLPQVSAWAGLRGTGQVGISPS

T3: murine MAdCAM on cells (mouse, UniProt Q61826 22-405)
T3 construct: whole, on cells; also called CHO cells over-expressing murine MAdCAM; MAdCAM-1 expressing structures of mouse mesenteric lymph node
T3 sequence (looked up): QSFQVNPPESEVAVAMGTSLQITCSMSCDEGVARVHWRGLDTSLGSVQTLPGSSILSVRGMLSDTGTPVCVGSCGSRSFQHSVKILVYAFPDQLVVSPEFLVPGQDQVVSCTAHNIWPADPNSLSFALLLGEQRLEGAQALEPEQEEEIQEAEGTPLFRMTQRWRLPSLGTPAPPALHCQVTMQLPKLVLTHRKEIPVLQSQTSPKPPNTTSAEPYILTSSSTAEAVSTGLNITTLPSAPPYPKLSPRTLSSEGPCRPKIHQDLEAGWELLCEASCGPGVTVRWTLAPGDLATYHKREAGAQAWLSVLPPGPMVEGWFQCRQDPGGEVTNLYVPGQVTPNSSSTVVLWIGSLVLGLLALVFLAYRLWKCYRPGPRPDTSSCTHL

B1: MIAB133 (antibody, V domains shown)
VH: EVQLLESGGGLVQPGGSLRLSCAASGFTFSSFWMHWVRQAPGKGLEWISYISGDSGYTNYADSVKGRFTISRDNSKNTLYLQMNSLRAEDTAVYYCARDRPYYYYMDVWGKGTTVTVSS
VL: DIQMTQSPSSLSASVGDRVTITCRASQSVSRSLAWYQQKPGKAPKLLIYAASSLQSGVPSRFSGSGSGTDFTLTISSLQPEDFATYYCQQYKSYPVTFGQGTKVEIK
notes: tested with human Fc; also called MIAB133-001
B2: MIAB153 (antibody, V domains shown)
VH: B1 VH with S31D
VL: B1 VL with R31S, A34N
notes: tested with human Fc
B3: MIAB170 (antibody, V domains shown)
VH: B1 VH with S31D, Y105W
VL: B1 VL
notes: tested with human Fc
B4: MIAB147 (antibody, V domains shown)
VH: B1 VH with S31D
VL: B1 VL with S32Y
notes: tested with human Fc; also called MIAB147-001
B5: MIAB136 (antibody, V domains shown)
VH: B1 VH with F32Y, W33A, H35S
VL: B1 VL
notes: tested with human Fc
B6: MIAB148 (antibody, V domains shown)
VH: B1 VH with S31D
VL: B1 VL with A34N
notes: tested with human Fc
B7: MIAB151 (antibody, V domains shown)
VH: B1 VH with S31D
VL: B1 VL with V29I, A34N
notes: tested with human Fc
B8: MIAB149 (antibody, V domains shown)
VH: B1 VH with S31D
VL: B1 VL with V29I, R31S
notes: tested with human Fc; also called MIAB149-001
B9: MIAB146 (antibody, V domains shown)
VH: B1 VH with S31D
VL: B1 VL with R31S
notes: tested with human Fc; also called MIAB146-001
B10: MIAB145 (antibody, V domains shown)
VH: B1 VH with S31D
VL: B1 VL with V29I
notes: tested with human Fc; also called MIAB145-001
B11: MIAB137 (antibody, V domains shown)
VH: B1 VH with S31D, I48V, Y50A, D54S, S55G, Y57S, N59Y
VL: B1 VL
notes: tested with human Fc
B12: MIAB37 (antibody, V domains shown)
VH: EVQLLESGGGLVQPGGSLRLSCAASGFTFDDYAMHWVRQAPGKGLEWVASITSSSAFIDYADSVKGRFTISRDNSKNTLYLQMNSLRAEDTAVYYCAQERVDWNSYFDLWGQGTLVTVSS
VL: EIVMTQSPATLSVSPGERATLSCRASQGISNSYLAWYQQKPGQAPRLLIYGASTRATGIPARFSGSGSGTEFTLTISSLQSEDFAVYYCQQYYTYPPTFGQGTKVEIK
notes: tested with human Fc
B13: PMAB1 (bispecific antibody, human IgG1, kappa)
heavy: EVQLLESGGGLVQPGGSLRLSCAASGFTFSNSDMSWVRQAPGKGLEWVSGITISGGSTYYADSVKGRFTISRDNSKNTLYLQMNSLRAEDTAVYYCARGRGGSGWLDYWGQGTLVTVSSASTKGPSVFPLAPSSKSTSGGTAALGCLVKDYFPEPVTVSWNSGALTSGVHTFPAVLQSSGLYSLSSVVTVPSSSLGTQTYICNVNHKPSNTKVDKKVEPKSCDKTHTCPPCPAPEAAGAPSVFLFPPKPKDTLMISRTPEVTCVVVDVSHEDPEVKFNWYVDGVEVHNAKTKPREEQYNSTYRVVSVLTVLHQDWLNGKEYKCKVSNKALPAPIEKTISKAKGQPREPQVYTLPPSREEMTKNQVSLTCLVKGFYPSDIAVEWESNGQPENNYKTTPPVLDSDGSFFLYSKLTVDKSRWQQGNVFSCSVMHEALHNHYTQKSLSLSPGGGGGSGGGGSGGGGSEVQLLESGGGLVQPGGSLRLSCAASGFTFSDFWMHWVRQAPGKGLEWISYISGDSGYTNYADSVKGRFTISRDNSKNTLYLQMNSLRAEDTAVYYCARDRPYYYYMDVWGKGTTVTVSSGGGGSGGGGSGGGGSGGGGSDIQMTQSPSSLSASVGDRVTITCRASQSVSRSLAWYQQKPGKAPKLLIYAASSLQSGVPSRFSGSGSGTDFTLTISSLQPEDFATYYCQQYKSYPVTFGQGTKVEIK
light: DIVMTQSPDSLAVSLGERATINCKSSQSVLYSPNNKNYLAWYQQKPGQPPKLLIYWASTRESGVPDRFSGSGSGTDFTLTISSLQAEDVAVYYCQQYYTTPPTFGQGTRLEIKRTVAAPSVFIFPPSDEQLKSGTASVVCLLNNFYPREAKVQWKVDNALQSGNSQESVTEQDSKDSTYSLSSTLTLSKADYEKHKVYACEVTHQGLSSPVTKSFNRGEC
notes: also called parental PMAB1

Chain of Insulin (P01308 25-54, chain 1 of 2): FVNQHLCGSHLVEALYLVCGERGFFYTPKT
Chain of Insulin (P01308 90-110, chain 2 of 2): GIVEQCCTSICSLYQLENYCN

For the first assay, the target named is T1, human MAdCAM. Put plainly: BLI (Octet), binder on anti-human Fc tips. In general terms: In BLI a coated tip is dipped into the sample, and binding shifts an interference pattern.
Consider B1, for which the dissociation constant (Kd) is 20 nM and the koff is 0.0113 s⁻¹.

Turning to B2, the affinity, expressed as Kd, was 8360 nM; the koff was determined as 0.543 s⁻¹; the kon was 64800 M⁻¹ s⁻¹.

With B3, the binding result was “no binding (tested: 1 µM)”.

Consider B4, for which the binding result is given as “no binding (tested: 200 nM)”.

Consider B5, for which the binding result is “no binding (tested: 150 nM)”.

Turning to B6, the Kd worked out at 2690 nM, the koff is 0.314 s⁻¹ and the kon came to 117000 M⁻¹ s⁻¹.

B7 came in with a Kd of 2960 nM, an off-rate constant (koff) of 0.292 s⁻¹ and a kon of 98700 M⁻¹ s⁻¹.

Regarding B8, binding was put at a Kd of 68.8 nM, the koff is 0.0259 s⁻¹ and the kon came to 376000 M⁻¹ s⁻¹.

B9 had a Kd of 43.8 nM, a koff of 0.0197 s⁻¹ and a kon of 449000 M⁻¹ s⁻¹.

B10: the Kd was 22.2 nM, the koff came to 0.00897 s⁻¹ and the kon came to 405000 M⁻¹ s⁻¹.

B11 registered a Kd of 203 nM, a koff of 0.082 s⁻¹ and a kon of 404000 M⁻¹ s⁻¹.

Another assay deals with T2, human MAdCAM on CHO cells. Put plainly: flow cytometry on CHO cells. The protocol: (§1) Parental CHO cells or CHO cells over-expressing human MAdCAM or murine MAdCAM were seeded onto wells of a 96 well plate (Corning) overnight. After washing 3 times with F12+10% FBS media, the plate was blocked for 1 hour with 5 uM whole human IgG. 10 nM parental MAdCAM-IL-2 M bi-specifics PRNT1 and PRNT2, or optimized variants MIAB12, MIAB13, MIAB25, MIAB26, MIAB37, MIAB204 and MIAB197 were captured for 1 hour. After washing 2 times with F12+10% FBS media, freshly-isolated human PBMCs were stimulated for 60 minutes with captured IL-2 MM bispecifics. Cells were then fixed for 10 minutes with BD Cytofix, permeabilized sequentially with BD Perm III, and BioLegend FOXP3 permeabilization buffer, blocked with human serum and stained for 30 minutes with antibodies against phospho-STAT5 A488, CD25 PE, FOXP3 AF647 and CD4 PerCP Cy5.5, CD3 BV421, CD56 BV785 and acquired on an Attune NXT with plate loader. […] Accordingly, PRNT1, PRNT2, MIAB1, MIAB12, MIAB13, MIAB25, MIAB26, MIAB37 MIAB204, and MIAB197 selectively activate Tregs.
(In general: In flow cytometry, cells or beads pass a laser one at a time.)
For the molecule B12, the binding result is “binds”.

Another assay addresses T3, murine MAdCAM on cells. Put plainly: flow cytometry on CHO cells. The protocol: as §1
For the molecule B12, the binding result is “binds”.

The next assay addresses Insulin. Put plainly: polyreactivity ELISA on insulin coat, 100 nM. The protocol:
Non-specific DNA and Insulin binding is predictive of poor pharmacokinetics (PK). An immunosorbent plate was coated with dsDNA at a concentration of 1 μg/mL or Insulin at 5 μg/mL in PBS pH 7.4, 75 ul/well, and incubated overnight at 4° C. Wells were washed with PBS pH 7.4 containing 0.05% Tween-20 (wash buffer) three times, and then blocked with 200 ul/well 1% BSA in PBS pH 7.4 (block buffer) for two hours at room temperature. After three washes with wash buffer, TAs and controls Lenzilumab and Elotuzumab were diluted to 100 nM in PBS containing 1% BSA and 0.05% Tween-20 (assay buffer). The diluted material was added to the DNA/insulin coated plate at 75 ul/well for 1 hour at room temperature. After three washes with wash buffer, a donkey anti-human FcY HRP conjugated polyclonal antibody, diluted to 1:5000 in assay buffer, was added to the plate at 75 ul/well for 1 hr at room temperature. After three washes with wash buffer and three washes with wash buffer (with no tween-20), the assay was developed with TMB, and stopped with 1N HCL. OD 450 nm was measured. The experiment included appropriate controls for non-specific binding of test articles to the plate/block in the absence of DNA or insulin.
In general terms: ELISA stands for enzyme-linked immunosorbent assay.
B1 returned an Insulin polyreactivity score of 13.2.

Take B2: the Insulin polyreactivity score was determined as 2.46.

On to B3, for which the Insulin polyreactivity score was 4.73.

Molecule B4 yielded an Insulin polyreactivity score of 3.81.

B5: the Insulin polyreactivity score was 75.4.

Take B6: the Insulin polyreactivity score came to 3.63.

B7 showed an Insulin polyreactivity score of 3.63.

B8 yielded an Insulin polyreactivity score of 3.53.

B9: the Insulin polyreactivity score stood at 2.61.

In the case of B10, the Insulin polyreactivity score turned out to be 4.58.

B11 registered an Insulin polyreactivity score of 67.3.

A further assay has as its target T3, murine MAdCAM on cells. Put plainly: confocal staining of mouse mesenteric lymph node sections, 1 and 10 nM. The protocol:
Fresh frozen mesenteric lymph node replicates from a 12-week BALB/c mouse were sectioned at 5 um, fixed with acetone, blocked with blockaid buffer solution for ten minutes room temperature and incubated with 1 and 10 nM titrations of test articles overnight at 4-degree Celsius. Tissues were then stained with anti-mouse MAdCAM and anti-human IgG Fc for two hours room temperature, DAPI counterstained and mounted and imaged with confocal microscopy. Clones including optimized MAdCAM (PMAB58 and PMAB18) co-localized with MAdCAM-1 expressing structures similarly to the parental clones (PMAB1 and PMAB57).
On to B13, for which the binding result is “binds”.
